Data published in the supplement of paper PMC10724198.
± gives the standard deviation of the averaged measurements.

Test system: Saccharomyces cerevisiae
Assay: protein stability index of tFT-peptide fusion (C-terminal peptide) (PSI (0-1 scale)); higher = more stable (slower turnover)
Conditions: genetic background: wild type; temperature: 30 C
Description: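 Multiplexed protein stability (MPS) profiling in S. cerevisiae. Random 12-aa peptides (tFT-X12 library) are fused to the C-terminus of a sfGFP-mCherry tandem fluorescent timer, after mCherry and a GGGS linker. Cells are FACS-sorted into 8 mCherry/sfGFP bins and deep-sequenced. The protein stability index (PSI) is the read-weighted bin average, scaled from 0 (unstable) to 1 (stable). Only peptides with >10 reads are reported; cells were grown at 30 °C in SC-His with glucose.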
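Note: PSI is a weighted mean of sequencing reads over stability bins, variants kept only with over 10 reads, mCherry proximal and sfGFP distal, peptide attached via GGGS linker.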

| Sequence | protein stability index |
| --- | --- |
| IKNEKKNKRKKK | 0.71337 ± 0.00014 |
| IKPTRKKTISTR | 0.715 ± 0.095 |
| IKRRKRNRKRGP | 0.675 ± 0.041 |
| IKTCANGPPHSM | 0.64 ± 0.06 |
| ILCASDLNRPCL | 0.697 ± 0.04 |
| ILFVTASSFSPP | 0.67 ± 0.045 |
| ILPCLSVRFFAP | 0.658 ± 0.0068 |
| ILPYTDTVCYRY | 0.699 ± 0.047 |
| ILRLVGRGLVLL | 0.639 ± 0.013 |
| ILSDCWDQTIIE | 0.671 ± 0.018 |
| ILSFPYSQYFMS | 0.7242 ± 0.0052 |
| ILSRTEGHCLII | 0.739 ± 0.074 |
| ILVGPTDFLPLE | 0.651 ± 0.016 |
| ILVSRQGRGMRS | 0.643 ± 0.013 |
| ILVSVLRFVRNR | 0.691 ± 0.029 |
| IMGGGGEGGINC | 0.698 ± 0.019 |
| IMRLCSSNRICG | 0.678 ± 0.027 |
| INGSTENKSVKT | 0.644 ± 0.012 |
| INKNKKKEKLTK | 0.697 ± 0.015 |
| INVKRSNAQRKG | 0.754 ± 0.058 |
| INVNNENLRGTE | 0.663 ± 0.072 |
| IPDPSPFTCPNV | 0.557 ± 0.02 |
| IPGVPPPRFSIR | 0.704 ± 0.034 |
| IPLCRVAGPKLK | 0.591 ± 0.048 |
| IPLPMLLHLPRA | 0.684 ± 0.019 |

| Sequence | protein stability index |
| --- | --- |
| IPRHLGTRVVPI | 0.682 ± 0.072 |
| IPSLSLPLQTGS | 0.64 ± 0.055 |
| IQAERKKSYKDT | 0.616 ± 0.075 |
| IQSRGQEKKKRK | 0.673 ± 0.0075 |
| IRGWVRCRVARG | 0.683 ± 0.021 |
| IRILDARYLSIS | 0.62 ± 0.12 |
| IRKKIRKKTIYK | 0.798 ± 0.034 |
| IRKKNKEKIKNQ | 0.691 ± 0.25 |
| IRKPRRHRTVET | 0.73 ± 0.057 |
| IRNSDNNKNHPR | 0.693 ± 0.042 |
| IRPSQASSLRKT | 0.634 ± 0.066 |
| IRQPIPTKVHRL | 0.744 ± 0.045 |
| IRVAWTPRSYDL | 0.664 ± 0.038 |
| ISALYVPGILSK | 0.6 ± 0.018 |
| ISCSDNMLLLFD | 0.697 ± 0.01 |
| ISCTASRCRLTR | 0.744 ± 0.025 |
| ISFGSVFSGFFH | 0.7354 ± 0.0014 |
| ISFTDPSMGTLG | 0.608 ± 0.11 |
| ISGEISTLLKTR | 0.71 ± 0.081 |
| ISLGGNWHRVVT | 0.649 ± 0.019 |
| ISSGRRFRAGAE | 0.703 ± 0.046 |
| ISSIRKNSKREE | 0.755 ± 0.031 |
| ISVRAVDFGIAG | 0.68 ± 0.033 |
| ITAATFCRRPAS | 0.659 ± 0.12 |
| ITGSRVQVYIGR | 0.693 ± 0.021 |

| Sequence | protein stability index |
| --- | --- |
| ITKELKNIKQED | 0.675 ± 0.0088 |
| ITLSCFPRPFPL | 0.691 ± 0.02 |
| ITRAKGKPEISL | 0.639 ± 0.12 |
| IVAWQGRNLTPL | 0.655 ± 0.12 |
| IVGAVMMGGRTM | 0.68 ± 0.013 |
| IVGEDRRRTAFR | 0.678 ± 0.026 |
| IVMGVGCYTGRP | 0.74 ± 0.036 |
| IWAKLGFRLQYS | 0.701 ± 0.13 |
| IWGGGKGRAGRH | 0.651 ± 0.041 |
| IYCGDRGITGGV | 0.683 ± 0.019 |
| IYCWGVSFGWLR | 0.68 ± 0.021 |
| IYHCRKSYKTRQ | 0.7205 ± 0.0042 |
| IYNGMLREEKSL | 0.728 ± 0.017 |
| KAGVWLWGGGGG | 0.678 ± 0.069 |
| KALGLRDHAILD | 0.6583 ± 0.004 |
| KALKNEYRYRAF | 0.645 ± 0.073 |
| KAPPDERGTGAQ | 0.6273 ± 0.0018 |
| KARLRQRKSTSK | 0.728 ± 0.0084 |
| KAVSRQSEATPV | 0.76 ± 0.093 |
| KAYGSCRSLAWF | 0.712 ± 0.061 |
| KCKRGYSAVREL | 0.936 ± 0.09 |
| KCSKGSQGECHV | 0.671 ± 0.05 |
| KDGSKMQCNIKK | 0.6763 ± 0.0014 |
| KEDLGGMVSGGR | 0.644 ± 0.009 |
| KEEIRNKIKTIK | 0.6809 ± 0.0063 |

| Sequence | protein stability index |
| --- | --- |
| KEKKGNKTKKQN | 0.657 ± 0.017 |
| KEKRLKATTQYE | 0.699 ± 0.015 |
| KELENLHDNEGN | 0.616 ± 0.019 |
| KELRYKKDRKKK | 0.689 ± 0.026 |
| KENYGIKTKDRK | 0.696 ± 0.075 |
| KEQKIMSKKIEK | 0.68978 ± 0.00026 |
| KEREGGSMNGGG | 0.692 ± 0.064 |
| KEWLSRDIEDAS | 0.665 ± 0.027 |
| KFRFPVDLIFET | 0.73 ± 0.015 |
| KGDMSCWPSRPI | 0.7137 ± 0.00075 |
| KGGWGMRGVRGG | 0.672 ± 0.0046 |
| KGKFTRGGMAGT | 0.668 ± 0.049 |
| KGKKRKNEKNKR | 0.691 ± 0.0089 |
| KGLLSITLRNLD | 0.63 ± 0.049 |
| KGMVEESIIKRA | 0.62084 ± 0.00038 |
| KGRKKKKRKEQE | 0.693 ± 0.016 |
| KGRRVSTGRRRR | 0.712 ± 0.004 |
| KGRWEVRGEGRG | 0.64 ± 0.03 |
| KGSWCSPRGELR | 0.6552 ± 0.0059 |
| KHKGRSKETHDV | 0.616 ± 0.09 |
| KHLIHSRLGICG | 0.6634 ± 0.0059 |
| KHRKSKEIRTAR | 0.6844 ± 0.0065 |
| KIGEVNKKQSII | 0.743 ± 0.064 |
| KIIKKKKKNKEH | 0.596 ± 0.055 |
| KIIRKNILRNEY | 0.658 ± 0.018 |

| Sequence | protein stability index |
| --- | --- |
| KIKNHQRQIMNT | 0.494 ± 0.092 |
| KIKTTKKIKKKK | 0.681 ± 0.032 |
| KINKNMDYKYQK | 0.673 ± 0.095 |
| KINPQKTEWARR | 0.689 ± 0.024 |
| KKDIYRVGLKVR | 0.618 ± 0.011 |
| KKDMCRSSFPDC | 0.686 ± 0.007 |
| KKEIGGSNWNKK | 0.632 ± 0.09 |
| KKEKKKTKANKT | 0.679 ± 0.031 |
| KKEQPKEKQGNK | 0.732 ± 0.053 |
| KKETKSNCRIKN | 0.708 ± 0.017 |
| KKETRKKETKKE | 0.685 ± 0.041 |
| KKETRRTNPEHK | 0.765 ± 0.11 |
| KKGGKEEPSRRK | 0.741 ± 0.084 |
| KKIKKKQKKKIQ | 0.664 ± 0.071 |
| KKKELLTKKQKD | 0.637 ± 0.021 |
| KKKENKNEKKKE | 0.692 ± 0.06 |
| KKKGWAKEKLKR | 0.75 ± 0.051 |
| KKKKIKKNKKQL | 0.684 ± 0.01 |
| KKKKKIKNKKKK | 0.741 ± 0.032 |
| KKKKKKEKGDST | 0.716 ± 0.076 |
| KKKKKKKKKKQN | 0.62 ± 0.039 |
| KKKKKKKKKNEK | 0.755 ± 0.024 |
| KKKKKKKNKKKT | 0.7142 ± 0.00095 |
| KKKKKKNSEKMK | 0.704 ± 0.062 |
| KKKKKKQKHKKI | 0.718 ± 0.033 |

| Sequence | protein stability index |
| --- | --- |
| KKKKKRKKEEKH | 0.721 ± 0.032 |
| KKKKKTQKKTKQ | 0.6818 ± 0.0029 |
| KKKKNKNEKPKK | 0.746 ± 0.074 |
| KKKKNNKKKKIE | 0.702 ± 0.015 |
| KKKKQKKKYKKT | 0.695 ± 0.095 |
| KKKNEAKKKKTK | 0.744 ± 0.058 |
| KKKQTKGNQKPK | 0.7623 ± 0.0011 |
| KKKRKRREKKQN | 0.681 ± 0.016 |
| KKKTKQTKVNKK | 0.64 ± 0.072 |
| KKNCRKNQKEET | 0.663 ± 0.067 |
| KKNKKQDDKKRQ | 0.645 ± 0.039 |
| KKNNTKKNRKRK | 0.7 ± 0.051 |
| KKQAVRVEIIGR | 0.655 ± 0.018 |
| KKQKKKKTQTNK | 0.68224 ± 0.00034 |
| KKQKSKSAREAS | 0.658 ± 0.024 |
| KKQQKTKEKTES | 0.76 ± 0.031 |
| KKRKEIKNREEK | 0.739 ± 0.035 |
| KKRKEKRKKNSI | 0.647 ± 0.016 |
| KKRKGKGRDIRG | 0.7025 ± 0.0016 |
| KKRREKKYQHKI | 0.713 ± 0.039 |
| KKRRTIKSQSKV | 0.6825 ± 0.0049 |
| KKSKEKGTRRQR | 0.651 ± 0.073 |
| KKSKKKSKNIRK | 0.694 ± 0.028 |
| KKSNEKERATQQ | 0.708 ± 0.046 |
| KKSVDKNKEIKL | 0.681 ± 0.12 |

| Sequence | protein stability index |
| --- | --- |
| KKTRGNNGKTQR | 0.631 ± 0.0076 |
| KKTSKTERDQKE | 0.639 ± 0.015 |
| KKTTKKKRKKNK | 0.657 ± 0.018 |
| KKTVKNNQNNTD | 0.654 ± 0.041 |
| KKVKNQGLILRW | 0.673 ± 0.035 |
| KKVTEKSKNEKR | 0.692 ± 0.053 |
| KLEEKRKEMERK | 0.7093 ± 0.007 |
| KLEERIKRTEDK | 0.7219 ± 0.0018 |
| KLKIKREKKKRK | 0.668 ± 0.019 |
| KLKIMEDQGKKK | 0.706 ± 0.12 |
| KLPILDKKAVAQ | 0.696 ± 0.03 |
| KLPPATPNSRPP | 0.714 ± 0.2 |
| KLPRPRHSDCPS | 0.6505 ± 0.00069 |
| KLQPVTTTQTIG | 0.6713 ± 0.004 |
| KNANLRLPWKAH | 0.667 ± 0.029 |
| KNAQQYQKKQKQ | 0.797 ± 0.056 |
| KNEIRLKEDIRC | 0.718 ± 0.017 |
| KNIKKKNKNDKK | 0.6936 ± 0.0063 |
| KNKKKNSRKKQQ | 0.702 ± 0.0083 |
| KNMKTEDLLIVN | 0.727 ± 0.022 |
| KNSWVLPPSPRS | 0.68 ± 0.04 |
| KNVHKDNRSVKK | 0.677 ± 0.14 |
| KPGGQRTRTRRR | 0.622 ± 0.025 |
| KPSAKRRNLFKL | 0.699 ± 0.15 |
| KQAPTLFLSFIL | 0.5885 ± 0.0028 |

| Sequence | protein stability index |
| --- | --- |
| KQDTRRHIHTTK | 0.735 ± 0.092 |
| KQEDIKNKKKKE | 0.679 ± 0.032 |
| KQKKIGNKITNK | 0.667 ± 0.008 |
| KQKKKKKEYKKK | 0.676 ± 0.027 |
| KQKKNKNNHRKK | 0.761 ± 0.024 |
| KQKQNKIKITTQ | 0.656 ± 0.0077 |
| KQKRKENIHIIK | 0.776 ± 0.033 |
| KQQRKNEKTNTL | 0.658 ± 0.16 |
| KQSIKKKKIKKT | 0.634 ± 0.017 |
| KRAREKDGKSAD | 0.676 ± 0.032 |
| KRARLWQKRVEK | 0.754 ± 0.14 |
| KREMESTTHSKT | 0.5985 ± 0.0011 |
| KRFDKEWEIWRS | 0.733 ± 0.023 |
| KRGFSLKEARGF | 0.642 ± 0.008 |
| KRGKNKKYKNRF | 0.638 ± 0.074 |
| KRGRAIVVQLWV | 0.578 ± 0.021 |
| KRKDGVTAGVEG | 0.712 ± 0.017 |
| KRKETIRKKNQT | 0.734 ± 0.05 |
| KRKHHKREKKKK | 0.677 ± 0.042 |
| KRKKEKRKEERK | 0.779 ± 0.011 |
| KRKKIQNRGKKK | 0.718 ± 0.0086 |
